# According to article PMC3665890:
# Target: FITC-conjugated Mouse transferrin (UniProt Q921I1)
# Experiment: flow cytometry on cells
# Conditions: read off a plot
# UniProt Q921I1, sequence (Q921I1 whole entry, looked up): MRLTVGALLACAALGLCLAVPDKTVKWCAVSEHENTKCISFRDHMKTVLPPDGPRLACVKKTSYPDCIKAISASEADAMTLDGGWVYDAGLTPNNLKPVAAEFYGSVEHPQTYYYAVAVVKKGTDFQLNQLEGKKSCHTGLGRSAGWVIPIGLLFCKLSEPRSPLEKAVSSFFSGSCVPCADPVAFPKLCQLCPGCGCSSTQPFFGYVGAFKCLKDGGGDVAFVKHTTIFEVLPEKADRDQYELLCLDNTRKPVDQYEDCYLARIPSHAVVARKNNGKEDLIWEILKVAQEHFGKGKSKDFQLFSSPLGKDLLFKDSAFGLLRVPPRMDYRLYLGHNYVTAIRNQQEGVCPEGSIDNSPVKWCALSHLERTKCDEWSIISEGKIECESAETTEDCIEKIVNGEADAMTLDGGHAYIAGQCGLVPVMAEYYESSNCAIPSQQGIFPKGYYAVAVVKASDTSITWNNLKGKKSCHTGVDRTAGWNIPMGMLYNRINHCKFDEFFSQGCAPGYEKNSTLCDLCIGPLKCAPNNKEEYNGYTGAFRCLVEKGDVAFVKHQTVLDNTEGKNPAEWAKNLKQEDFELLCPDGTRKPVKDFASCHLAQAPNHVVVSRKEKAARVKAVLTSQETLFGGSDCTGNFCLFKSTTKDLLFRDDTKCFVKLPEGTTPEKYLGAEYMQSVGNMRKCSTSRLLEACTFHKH
Substance,response (parent: est. 1100),"response (MDCK cells stably expressing TfR1-FLAG, incubated with media containing FITC-labeled iron-loaded mouse transferrin, three replicates, parent: est. 580)"
"house mouse (Mus musculus) TfR1, wild type, C-terminal FLAG (from UniProt Q62351) A296S; R569I; A575L",910 m.f.i.,
"zygodont (Zygodontomys brevicauda) TfR1, wild type, C-terminal FLAG S296A; N569R; S575A",,590 m.f.i.
